Laboratory results from patent US20210363224A1 (CONSEJO SUPERIOR DE INVESTIGACIONES CIENT FICAS, published 2021).

Target: T1, Recombinant human IL13 (PeproTech) (human, UniProt P35225 35-146, limits assumed)
T1 construct: Bought reagent; also called interleukin 13
Assay: SPR, BIAcore 3000, IL-13 amine-coupled to CM5 sensor chip (7700 RU), peptide as analyte
Experimental: Binding of D1 peptide to IL-13 was monitored by surface plasmon resonance on a BIAcore 3000 instrument (BIAcore Inc, Switzerland). IL-13 was covalently amino coupled to a CM-5 sensor chip. An immobilization level of 7700 RU was obtained. A nonderivatized flow cell was used as a control. The interaction between D1 peptide and the immobilized IL13 was determined by changes in the RU at different D1 concentrations.
A direct quantitative analytical method as Biacore was used to determine the affinity of the D1 peptide binding to IL-13 (FIG. 3C). Some limitations in the quantitative adjustment to the established models of the Biacore instrument caused a difficult interpretation of the results and impede an accurate determination of the affinity.

T1 sequence (P35225 35-146 limits assumed): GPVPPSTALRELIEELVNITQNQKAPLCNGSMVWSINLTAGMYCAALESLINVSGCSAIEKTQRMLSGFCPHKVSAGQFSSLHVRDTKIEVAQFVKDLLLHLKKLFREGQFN

B1: IL13Rα2D1 peptide (GSETWKTIITKN) (peptide)
peptide: GSETWKTIITKN
notes: Made by solid phase synthesis; also called peptide IL13Rα2 D1; L-version
Kd: ~100 µM
